Columns and labels:
[1] = system: CD11c^+ CD11b^+ CD205^+ cells; assay: Flow analysis of lung CD11c+ dendritic cells after IL-33 challenge; format: in vivo, mouse; conditions: for change in CD11c^+ CD11b^+ CD205^+ cells: IL-33, n = 3
Procedure: Male mice in each group, 3-5 weeks old were anesthetized using Isoflurane. The mice were treated intranasal with 200ng/mice/day for four continues days. By the fifth day the mice were killed by CO2 suffocation, and bronchial alveolar lavage fluid (BALF) was extracted using PBS. The lungs were extracted and fixed using 10% para formaldehyde. Immunofluresence of slide sections was performed. Slides were analyzed using anti-PIN1 antibodies and anti-IRAK-M antibodies or IgG as control and were counterstained using DAPI. In some cases, cells obtained from BALF were cytospined and the cells were fixed and stained in the same manner. For staining of the cells, Diff-Quick (Diff-Quik) Staining Protocol were used. All animal work was carried out in compliance with the ethical regulations approved by the Animal Care Committee, Beth Israel Deaconess Medical Center, Boston, MA, USA. The permission was granted to perform animal experiments by the Institutional Animal Care and Use Committee at Beth Israel Deaconess Medical Center, Boston, MA, USA.
Lungs were digested using Kollagenase D and dispase and the dendritic cells populations (CD11c^+ CD205^+ CD11b^+) were determined by staining the cells using the following antibodies: PE anti mouse CD11c (catalog number 117307), APC anti mouse CD205 (catalog number 138205), FITC anti mouse CD11b (catalog number 101205). For co stimulatory protein expression, FITC anti mouse CD40 (catalog number 124607), FITC anti mouse CD80 (catalog number 104705), FITC anti mouse CD86 (catalog number 105005) were used. For T cell (CD3^+ CD4^+) population isolation, the cells were stained with APC anti mouse CD3^+ (catalog number 100235) FITC anti mouse CD4^+ (catalog number 100405) before the cells were cell sorted. Human BALF samples were stained with FITC anti human CD15 (catalog number 301903) or FITC anti human CD205 (catalog number 342206). All antibodies were purchased from Biolegend and diluted according to manufacture instruction (1:100 dilution). Cells were analyzed using LSRII flow cytometer and FlowJo software. For cytospin the cells were spun onto glass slides, air dried and fixed using 4%PFA and stained with the indicated antibodies.

IRAK-M = IRAK-M phosphorylation in DC2.4 cells; format: cell-based, C57BL/6; conditions: DC2.4; IL-33 100 ng/ml, 1 h, γ-32P labeling
Procedure: Fig. 2 IL-33 induces IRAK-M phosphorylation and binding to PIN1. a GST PIN1 pulldown assay with DC2.4 cell extracts either non-treated or treated with IL-33 (100 ng/ml) or LPS (100ng/ml) for 1 h. […] The cells were washed with fresh medium and treated with 100 ng/ml IL-33 for the indicated times prior to IRAK-M immunoprecipitation. d DC2.4 cells stably expressing IRAK-M were treated with IL-33 and at the indicated time points were subjected to CO-IP using anti-PIN1 antibody and blotted for IRAK-M. e HEK293 cells were transfected with different IRAK-M constructs expressing the N’ terminal domain (aa1-220), the middle portion of the protein (aa220-440) or the C’ terminal domain (aa 440-630), and then treated with IL-33, followed by CO-IP for PIN1. f DC2.4 cells stably expressing IRAK-M were treated with IL-33 and subjected to GST or GST-PIN1 pull-down.

B1: IL-33: Recombinant mouse IL-33 purchased from BioLegend (protein, UniProt Q8BVZ5 1-266, looked up)
Interleukin-33: MRPRMKYSNSKISPAKFSSTAGEALVPPCKIRRSQQKTKEFCHVYCMRLRSGLTIRKETSYFRKEPTKRYSLKSGTKHEENFSAYPRDSRKRSLLGSIQAFAASVDTLSIQGTSLLTQSPASLSTYNDQSVSFVLENGCYVINVDDSGKDQEQDQVLLRYYESPCPASQSGDGVDGKKLMVNMSPIKDTDIWLHANDKDYSVELQRGDVSPPEQAFFVLHKKSSDFVSFECKNLPGTYIGVKDNQLALVEEKDESCNNIMFKLSKI
- change in CD11c^+ CD11b^+ CD205^+ cells ([1]; IRAK-M KO mice): non significant (NS) increase
- CD40 and CD80 overexpression in lung CD11c^+ cells ([1]; IRAK-M KO mice, IL-33 treated, n=3): attenuated
- change in CD11c^+ CD11b^+ CD205^+ cells ([1]; PIN1 KO mice): more moderate increase
- CD40 and CD80 expression in lung CD11c^+ cells ([1]; WT mice, IL-33 treated, n=3): elevated
- induction of CD11c^+ CD11b^+ CD205^+ cells ([1]; WT mice, IL-33 vs PBS, n = 3, P < 0.05): 3 fold
- IRAK-M phosphorylation (IRAK-M): IRAK-M was phosphorylated

Reference: article PMC5913134, “The IL-33-PIN1-IRAK-M axis is critical for type 2 immunity in IL-33-induced allergic airway inflammation” (Nature Communications, 2018)
